US20050276799A1 (PDL BIOPHARMA, published 2005)
Like-named read-outs stand apart in the source and are kept apart here.

Tests used:
[1] = molecular target: T1, recombinant, GPI-linked rhesus FcRn on cell line NS0 RhFcRn, clone R-3 (rhesus, UniProt H9Z6D2 24-297; Q6V7J5 21-119, GPI-linked); assay: competition FACS vs biotinylated OST577-IgG2M3 on NS0 cells expressing rhesus FcRn, FBB pH 6.0
T1 construct: Expressed from pDL410 on the surface of NS0 cells; not shown: human c-myc decapeptide flanked by linker peptides, then GPI linkage signal of human decay accelerating factor (vector p)

[2] = molecular target: T2, recombinant, GPI-linked human FcRn on cell line NS0 HuFcRn (memb), clone 7-3 (human, UniProt P55899 24-297; P61769 21-119); assay: IC50 of wild-type / IC50 of this antibody, same assay
T2 construct: Expressed from pDL208 on the surface of NS0 cells; also called human neonatal Fc receptor; not shown: human c-myc decapeptide flanked by linker peptides, then GPI linkage signal of human decay accelerating factor (vector p)

[3] = molecular target: T2, recombinant, GPI-linked human FcRn on …; assay: competition FACS vs biotinylated OST577-IgG2M3 on NS0 cells expressing human FcRn, FBB pH 6.0
[4] = molecular target: T1, recombinant, GPI-linked rhesus FcRn on …; assay: IC50 of wild-type / IC50 of this antibody, same assay
[5] = molecular target: T2, recombinant, GPI-linked human FcRn on …; assay: competition FACS vs biotinylated OST577-IgG1 on NS0 cells expressing human FcRn, FBB pH 6.0
[6] = molecular target: T2, recombinant, GPI-linked human FcRn on …; assay: IC50 of wild-type / IC50 of this antibody, same assay; remark: listed apart in the source
[7] = molecular target: T2, recombinant, GPI-linked human FcRn on …; assay: competition FACS vs biotinylated HuEP5C7-IgG2M3 on NS0 cells expressing human FcRn, FSB pH 6.0
[8] = molecular target: T2, recombinant, GPI-linked human FcRn on …; assay: IC50 of wild-type / IC50 of this antibody, same assay; remark: listed apart in the source

Binder	IC50 [1] [µg/mL]	Relative Binding [2] [ratio]	IC50 [3] [µg/mL]	Relative Binding [4] [ratio]	IC50 [5] [µg/mL]	Relative Binding [6] [ratio]	IC50 [7] [µg/mL]	Relative Binding [8] [ratio]
OST577-IgG2M3 M428L (antibody) heavy: QVQLVESGGGVVQPGRSLRLSCAASGFTFSRYGMHWVRQAPGKGLEWVAVISYDGSNKWYADSVKGRFTISRDNSKNTLFLQMHSLRAADTGVYFCAKDQLYFGSQSPGHYWGQGTLVTVSSASTKGPSVFPLAPCSRSTSESTAALGCLVKDYFPEPVTVSWNSGALTSGVHTFPAVLQSSGLYSLSSVVTVPSSNFGTQTYTCNVDHKPSNTKVDKTVERKCCVECPPCPAPPAAAPSVFLFPPKPKDTLMISRTPEVTCVVVDVSHEDPEVQFNWYVDGVEVHNAKTKPREEQFNSTFRVVSVLTVVHQDWLNGKEYKCKVSNKGLPAPIEKTISKTKGQPREPQVYTLPPSREEMTKNQVSLTCLVKGFYPSDIAVEWESNGQPENNYKTTPPMLDSDGSFFLYSKLTVDKSRWQQGNVFSCSVLHEALHNHYTQKSLSLSPSK light: SYVLTQPPSVSVAPGQTARITCGGDNIGSKSVNWFQQKPGQAPVLVVYDDNERPSGISERFSGSNSGNTATLTISRVEAGDEADYYCQVWDSSSDHVVFGGGTKLTVLGQPKAAPSVTLFPPSSEELQANKATLVCLISDFYPGAVTVAWKADSSPVKAGVETTTPSKQSNNKYAASSYLSLTPEQWKSHRSYSCQVTHEGSTVEKTVAPTECS	1.92	6.7	1.79	7.7	–	–	–	–
OST577-IgG1 T250E/M428F (antibody) heavy: not shown light: SYVLTQPPSVSVAPGQTARITCGGDNIGSKSVNWFQQKPGQAPVLVVYDDNERPSGISERFSGSNSGNTATLTISRVEAGDEADYYCQVWDSSSDHVVFGGGTKLTVLGQPKAAPSVTLFPPSSEELQANKATLVCLISDFYPGAVTVAWKADSSPVKAGVETTTPSKQSNNKYAASSYLSLTPEQWKSHRSYSCQVTHEGSTVEKTVAPTECS	–	–	–	–	0.99	14	–	–
OST577-IgG2M3 T250Q (antibody) heavy: QVQLVESGGGVVQPGRSLRLSCAASGFTFSRYGMHWVRQAPGKGLEWVAVISYDGSNKWYADSVKGRFTISRDNSKNTLFLQMHSLRAADTGVYFCAKDQLYFGSQSPGHYWGQGTLVTVSSASTKGPSVFPLAPCSRSTSESTAALGCLVKDYFPEPVTVSWNSGALTSGVHTFPAVLQSSGLYSLSSVVTVPSSNFGTQTYTCNVDHKPSNTKVDKTVERKCCVECPPCPAPPAAAPSVFLFPPKPKDQLMISRTPEVTCVVVDVSHEDPEVQFNWYVDGVEVHNAKTKPREEQFNSTFRVVSVLTVVHQDWLNGKEYKCKVSNKGLPAPIEKTISKTKGQPREPQVYTLPPSREEMTKNQVSLTCLVKGFYPSDIAVEWESNGQPENNYKTTPPMLDSDGSFFLYSKLTVDKSRWQQGNVFSCSVMHEALHNHYTQKSLSLSPSK light: SYVLTQPPSVSVAPGQTARITCGGDNIGSKSVNWFQQKPGQAPVLVVYDDNERPSGISERFSGSNSGNTATLTISRVEAGDEADYYCQVWDSSSDHVVFGGGTKLTVLGQPKAAPSVTLFPPSSEELQANKATLVCLISDFYPGAVTVAWKADSSPVKAGVETTTPSKQSNNKYAASSYLSLTPEQWKSHRSYSCQVTHEGSTVEKTVAPTECS	4.05	2.8	4.2	3.6	–	–	–	–
OST577-IgG1 T250E (antibody) heavy: not shown light: SYVLTQPPSVSVAPGQTARITCGGDNIGSKSVNWFQQKPGQAPVLVVYDDNERPSGISERFSGSNSGNTATLTISRVEAGDEADYYCQVWDSSSDHVVFGGGTKLTVLGQPKAAPSVTLFPPSSEELQANKATLVCLISDFYPGAVTVAWKADSSPVKAGVETTTPSKQSNNKYAASSYLSLTPEQWKSHRSYSCQVTHEGSTVEKTVAPTECS	–	–	–	–	5.26	2.6	–	–
OST577-IgG2M3 T250V (antibody) heavy: QVQLVESGGGVVQPGRSLRLSCAASGFTFSRYGMHWVRQAPGKGLEWVAVISYDGSNKWYADSVKGRFTISRDNSKNTLFLQMHSLRAADTGVYFCAKDQLYFGSQSPGHYWGQGTLVTVSSASTKGPSVFPLAPCSRSTSESTAALGCLVKDYFPEPVTVSWNSGALTSGVHTFPAVLQSSGLYSLSSVVTVPSSNFGTQTYTCNVDHKPSNTKVDKTVERKCCVECPPCPAPPAAAPSVFLFPPKPKDVLMISRTPEVTCVVVDVSHEDPEVQFNWYVDGVEVHNAKTKPREEQFNSTFRVVSVLTVVHQDWLNGKEYKCKVSNKGLPAPIEKTISKTKGQPREPQVYTLPPSREEMTKNQVSLTCLVKGFYPSDIAVEWESNGQPENNYKTTPPMLDSDGSFFLYSKLTVDKSRWQQGNVFSCSVMHEALHNHYTQKSLSLSPSK light: SYVLTQPPSVSVAPGQTARITCGGDNIGSKSVNWFQQKPGQAPVLVVYDDNERPSGISERFSGSNSGNTATLTISRVEAGDEADYYCQVWDSSSDHVVFGGGTKLTVLGQPKAAPSVTLFPPSSEELQANKATLVCLISDFYPGAVTVAWKADSSPVKAGVETTTPSKQSNNKYAASSYLSLTPEQWKSHRSYSCQVTHEGSTVEKTVAPTECS	–	–	–	–	–	–	19	0.56
OST577-IgG1 M428F (antibody) heavy: not shown light: SYVLTQPPSVSVAPGQTARITCGGDNIGSKSVNWFQQKPGQAPVLVVYDDNERPSGISERFSGSNSGNTATLTISRVEAGDEADYYCQVWDSSSDHVVFGGGTKLTVLGQPKAAPSVTLFPPSSEELQANKATLVCLISDFYPGAVTVAWKADSSPVKAGVETTTPSKQSNNKYAASSYLSLTPEQWKSHRSYSCQVTHEGSTVEKTVAPTECS	–	–	–	–	3.44	4	–	–
OST577-IgG2M3 T250Q/M428F (antibody) heavy: QVQLVESGGGVVQPGRSLRLSCAASGFTFSRYGMHWVRQAPGKGLEWVAVISYDGSNKWYADSVKGRFTISRDNSKNTLFLQMHSLRAADTGVYFCAKDQLYFGSQSPGHYWGQGTLVTVSSASTKGPSVFPLAPCSRSTSESTAALGCLVKDYFPEPVTVSWNSGALTSGVHTFPAVLQSSGLYSLSSVVTVPSSNFGTQTYTCNVDHKPSNTKVDKTVERKCCVECPPCPAPPAAAPSVFLFPPKPKDQLMISRTPEVTCVVVDVSHEDPEVQFNWYVDGVEVHNAKTKPREEQFNSTFRVVSVLTVVHQDWLNGKEYKCKVSNKGLPAPIEKTISKTKGQPREPQVYTLPPSREEMTKNQVSLTCLVKGFYPSDIAVEWESNGQPENNYKTTPPMLDSDGSFFLYSKLTVDKSRWQQGNVFSCSVFHEALHNHYTQKSLSLSPSK light: SYVLTQPPSVSVAPGQTARITCGGDNIGSKSVNWFQQKPGQAPVLVVYDDNERPSGISERFSGSNSGNTATLTISRVEAGDEADYYCQVWDSSSDHVVFGGGTKLTVLGQPKAAPSVTLFPPSSEELQANKATLVCLISDFYPGAVTVAWKADSSPVKAGVETTTPSKQSNNKYAASSYLSLTPEQWKSHRSYSCQVTHEGSTVEKTVAPTECS	1.77	8	1.5	8.4	–	–	–	–
OST577-IgG2M3 T250Q/M428L (antibody) heavy: QVQLVESGGGVVQPGRSLRLSCAASGFTFSRYGMHWVRQAPGKGLEWVAVISYDGSNKWYADSVKGRFTISRDNSKNTLFLQMHSLRAADTGVYFCAKDQLYFGSQSPGHYWGQGTLVTVSSASTKGPSVFPLAPCSRSTSESTAALGCLVKDYFPEPVTVSWNSGALTSGVHTFPAVLQSSGLYSLSSVVTVPSSNFGTQTYTCNVDHKPSNTKVDKTVERKCCVECPPCPAPPAAAPSVFLFPPKPKDQLMISRTPEVTCVVVDVSHEDPEVQFNWYVDGVEVHNAKTKPREEQFNSTFRVVSVLTVVHQDWLNGKEYKCKVSNKGLPAPIEKTISKTKGQPREPQVYTLPPSREEMTKNQVSLTCLVKGFYPSDIAVEWESNGQPENNYKTTPPMLDSDGSFFLYSKLTVDKSRWQQGNVFSCSVLHEALHNHYTQKSLSLSPSK light: SYVLTQPPSVSVAPGQTARITCGGDNIGSKSVNWFQQKPGQAPVLVVYDDNERPSGISERFSGSNSGNTATLTISRVEAGDEADYYCQVWDSSSDHVVFGGGTKLTVLGQPKAAPSVTLFPPSSEELQANKATLVCLISDFYPGAVTVAWKADSSPVKAGVETTTPSKQSNNKYAASSYLSLTPEQWKSHRSYSCQVTHEGSTVEKTVAPTECS	0.554	28	0.43	27	–	–	–	–
